Test results as given in the supplement of paper PMC12458215.
± gives the uncertainty stated by the source.

Test system: HEK293T
Assay: plasma membrane surface immunostaining intensity (anti-HA, deep receptor scanning) (arbitrary fluorescence units); higher = higher plasma membrane expression

Row | Sequence | plasma membrane surface immunostaining intensity (GPCR class: A) | plasma membrane surface immunostaining intensity (GPCR class: A (Olfactory)) | also measured
1 | MEEGGDFDNYYGADNQSECEYTDWKSSGALIPAIYMLVFLLGTTGNGLVLWTVFRSSREKRRSADIFIASLAVADLTFVVTLPLWATYTYRDYDWPFGTFFCKLSSYLIFVNMYASVFCLTGLSFDRYLAIVRPVANARLRLRVSGAVATAVLWVLAALLAMPVMVLRTTGDLENTTKVQCYMDYSMVATVSSEWAWEVGLGVSSTTVGFVVPFTIMLTCYFFIAQTIAGHFRKERIEGLRKRRRLLSIIVVLVVTFALCWMPYHLVKTLYMLGSLLHWPCDFDLFLMNIFPYCTCISYVNSCLNPFLYAFFDPRFRQACTSMLCCGQSRCAGTSHSSSGEKSASYSSGHSQGPGPNMGKGGEQMHEKSIPYSQETLVVD [APLNR] | 6400 ± 84 | – | –
2 | MGPRAKTISSLFFLLWVLAEPAENSDFYLPGDYLLGGLFSLHANMKGIVHLNFLQVPMCKEYEVKVIGYNLMQAMRFAVEEINNDSSLLPGVLLGYEIVDVCYISNNVQPVLYFLAHEDNLLPIQEDYSNYISRVVAVIGPDNSESVMTVANFLSLFLLPQITYSAISDELRDKVRFPALLRTTPSADHHIEAMVQLMLHFRWNWIIVLVSSDTYGRDNGQLLGERVARRDICIAFQETLPTLQPNQNMTSEERQRLVTIVDKLQQSTARVVVVFSPDLTLYHFFNEVLRQNFTGAVWIASESWAIDPVLHNLTELRHLGTFLGITIQSVPIPGFSEFREWGPQAGPPPLSRTSQSYTCNQECDNCLNATLSFNTILRLSGERVVYSVYSAVYAVAHALHSLLGCDKSTCTKRVVYPWQLLEEIWKVNFTLLDHQIFFDPQGDVALHLEIVQWQWDRSQNPFQSVASYYPLQRQLKNIQDISWHTINNTIPMSMCSKRCQSGQKKKPVGIHVCCFECIDCLPGTFLNHTEDEYECQACPNNEWSYQSETSCFKRQLVFLEWHEAPTIAVALLAALGFLSTLAILVIFWRHFQTPIVRSAGGPMCFLMLTLLLVAYMVVPVYVGPPKVSTCLCRQALFPLCFTICISCIAVRSFQIVCAFKMASRFPRAYSYWVRYQGPYVSMAFITVLKMVIVVIGMLATGLSPTTRTDPDDPKITIVSCNPNYRNSLLFNTSLDLLLSVVGFSFAYMGKELPTNYNEAKFITLSMTFYFTSSVSLCTFMSAYSGVLVTIVDLLVTVLNLLAISLGYFGPKCYMILFYPERNTPAYFNSMIQGYTMRRD [TAS1R2] | – | – | plasma membrane surface immunostaining intensity (GPCR class: Taste): 229 ± 23
3 | MASLSQLSGHLNYTCGAENSTGASQARPHAYYALSYCALILAIVFGNGLVCMAVLKERALQTTTNYLVVSLAVADLLVATLVMPWVVYLEVTGGVWNFSRICCDVFVTLDVMMCTASILNLCAISIDRYTAVVMPVHYQHGTGQSSCRRVALMITAVWVLAFAVSCPLLFGFNTTGDPTVCSISNPDFVIYSSVVSFYLPFGVTVLVYARIYVVLKQRRRKRILTRQNSQCNSVRPGFPQQTLSPDPAHLELKRYYSICQDTALGGPGFQERGGELKREEKTRNSLSPTIAPKLSLEVRKLSNGRLSTSLKLGPLQPRGVPLREKKATQMVAIVLGAFIVCWLPFFLTHVLNTHCQTCHVSPELYSATTWLGYVNSALNPVIYTTFNIEFRKAFLKILSC [DRD3] | 3810 ± 240 | – | –
4 | MAETSALPTGFGELEVLAVGMVLLVEALSGLSLNTLTIFSFCKTPELRTPCHLLVLSLALADSGISLNALVAATSSLLRRWPYGSDGCQAHGFQGFVTALASICSSAAIAWGRYHHYCTRSQLAWNSAVSLVLFVWLSSAFWAALPLLGWGHYDYEPLGTCCTLDYSKGDRNFTSFLFTMSFFNFAMPLFITITSYSLMEQKLGKSGHLQVNTTLPARTLLLGWGPYAILYLYAVIADVTSISPKLQMVPALIAKMVPTINAINYALGNEMVCRGIWQCLSPQKREKDRTK [RGR] | 125 ± 16 | – | –
5 | MASSTTRGPRVSDLFSGLPPAVTTPANQSAEASAGNGSVAGADAPAVTPFQSLQLVHQLKGLIVLLYSVVVVVGLVGNCLLVLVIARVRRLHNVTNFLIGNLALSDVLMCTACVPLTLAYAFEPRGWVFGGGLCHLVFFLQPVTVYVSVFTLTTIAVDRYVVLVHPLRRRISLRLSAYAVLAIWALSAVLALPAAVHTYHVELKPHDVRLCEEFWGSQERQRQLYAWGLLLVTYLLPLLVILLSYVRVSVKLRNRVVPGCVTQSQADWDRARRRRTFCLLVVIVVVFAVCWLPLHVFNLLRDLDPHAIDPYAFGLVQLLCHWLAMSSACYNPFIYAWLHDSFREELRKLLVAWPRKIAPHGQNMTVSVVI [PRLHR] | 5220 ± 340 | – | –
6 | MEAGNQTGFLEFILLGLSEDPELQPFIFGLFLSMYLVTVLGNLLIILAISSDSHLHTPMYFFLSNLSWVDICFSTCIVPKMLVNIQTENKAISYMDCLTQVYFSMFFPILDTLLLTVMAYDRFVAVCHPLHYMIIMNPHLCGLLVFVTWLIGVMTSLLHISLMMHLIFCKDFEIPHFFCELTYILQLACSDTFLNSTLIYFMTGVLGVFPLLGIIFSYSRIASSIRKMSSSGGKQKALSTCGSHLSVVSLFYGTGIGVHFTSAVTHSSQKISVASVMYTVVTPMLNPFIYSLRNKDVKGALGSLLSRAASCL [OR7D2] | – | 118 ± 23 | –
7 | METNSSLPTNISGGTPAVSAGYLFLDIITYLVFAVTFVLGVLGNGLVIWVAGFRMTHTVTTISYLNLAVADFCFTSTLPFFMVRKAMGGHWPFGWFLCKFVFTIVDINLFGSVFLIALIALDRCVCVLHPVWTQNHRTVSLAKKVIIGPWVMALLLTLPVIIRVTTVPGKTGTVACTFNFSPWTNDPKERINVAVAMLTVRGIIRFIIGFSAPMSIVAVSYGLIATKIHKQGLIKSSRPLRVLSFVAAAFFLCWSPYQVVALIATVRIRELLQGMYKEIGIAVDVTSALAFFNSCLNPMLYVFMGQDFRERLIHALPASLERALTEDSTQTSDTATNSTLPSAEVELQAK [FPR1] | 6448 ± 46 | – | –
8 | MLGIMAWNATCKNWLAAEAALEKYYLSIFYGIEFVVGVLGNTIVVYGYIFSLKNWNSSNIYLFNLSVSDLAFLCTLPMLIRSYANGNWIYGDVLCISNRYVLHANLYTSILFLTFISIDRYLIIKYPFREHLLQKKEFAILISLAIWVLVTLELLPILPLINPVITDNGTTCNDFASSGDPNYNLIYSMCLTLLGFLIPLFVMCFFYYKIALFLKQRNRQVATALPLEKPLNLVIMAVVIFSVLFTPYHVMRNVRIASRLGSWKQYQCTQVVINSFYIVTRPLAFLNSVINPVFYFLLGDHFRDMLMNQLRHNFKSLTSFSRWAHELLLSFREK [SUCNR1] | 528 ± 61 | – | –
9 | MAMTWIVFSLWPLTVFMGHIGGHSLFSCEPITLRMCQDLPYNTTFMPNLLNHYDQQTAALAMEPFHPMVNLDCSRDFRPFLCALYAPICMEYGRVTLPCRRLCQRAYSECSKLMEMFGVPWPEDMECSRFPDCDEPYPRLVDLNLAGEPTEGAPVAVQRDYGFWCPRELKIDPDLGYSFLHVRDCSPPCPNMYFRREELSFARYFIGLISIICLSATLFTFLTFLIDVTRFRYPERPIIFYAVCYMMVSLIFFIGFLLEDRVACNASIPAQYKASTVTQGSHNKACTMLFMILYFFTMAGSVWWVILTITWFLAAVPKWGSEAIEKKALLFHASAWGIPGTLTIILLAMNKIEGDNISGVCFVGLYDVDALRYFVLAPLCLYVVVGVSLLLAGIISLNRVRIEIPLEKENQDKLVKFMIRIGVFSILYLVPLLVVIGCYFYEQAYRGIWETTWIQERCREYHIPCPYQVTQMSRPDLILFLMKYLMALIVGIPSVFWVGSKKTCFEWASFFHGRRKKEIVNESRQVLQEPDFAQSLLRDPNTPIIRKSRGTSTQGTSTHASSTQLAMVDDQRSKAGSIHSKVSSYHGSLHRSRDGRYTPCSYRGMEERLPHGSMSRLTDHSRHSSSHRLNEQSRHSSIRDLSNNPMTHITHGTSMNRVIEEDGTSA [FZD3] | – | – | plasma membrane surface immunostaining intensity (GPCR class: F): 177 ± 57
10 | MMGLTEGVFLILSGTQFTLGILVNCFIELVNGSSWFKTKRMSLSDFIITTLALLRIILLCIILTDSFLIEFSPNTHDSGIIMQIIDVSWTFTNHLSIWLATCLGVLYCLKIASFSHPTFLWLKWRVSRVMVWMLLGALLLSCGSTASLINEFKLYSVFRGIEATRNVTEHFRKKRSEYYLIHVLGTLWYLPPLIVSLASYSLLIFSLGRHTRQMLQNGTSSRDPTTEAHKRAIRIILSFFFLFLLYFLAFLIASFGNFLPKTKMAKMIGEVMTMFYPAGHSFILILGNSKLKQTFVVMLRCESGHLKPGSKGPIFS [TAS2R3] | – | – | plasma membrane surface immunostaining intensity (GPCR class: Taste): 135 ± 22
11 | MEKANETSPVMGFVLLRLSAHPELEKTFFVLILLMYLVILLGNGVLILVTILDSRLHTPMYFFLGNLSFLDICFTTSSVPLVLDSFLTPQETISFSACAVQMALSFAMAGTECLLLSMMAFDRYVAICNPLRYSVIMSKAAYMPMAASSWAIGGAASVVHTSLAIQLPFCGDNVINHFTCEILAVLKLACADISINVISMEVTNVIFLGVPVLFISFSYVFIITTILRIPSAEGRKKVFSTCSAHLTVVIVFYGTLFFMYGKPKSKDSMGADKEDLSDKLIPLFYGVVTPMLNPIIYSLRNKDVKAAVRRLLRPKGFTQ [OR2S2] | – | 120 ± 24 | –
12 | MEEENATLLTEFVLTGFLYQPQWKIPLFLAFLVIYLITIMGNLGLIAVIWKDPHLHIPMYLLLGNLAFVDAWISSTVTPKMLNNFLAKSKMISLSECKIQFFSIAIGVTTECFLLATMAYDRYVAICKPLLYPAIMTNGLCIRLLILSYIAGILHALIHEGFLFRLTFCNSNIVHHIYCDTIPLSKISCTDSSINFLMVFIFSGSIQVFSIVTILISYTFVLFTVLEKKSDKGVRKAFSTCGAHLFSVCLYYGPLLLMYVGPASPQADGQNMVEPLFYTVIIPLLNPIIYSLRNKQVIVSFIKMLKRNVKVSY [OR5H15] | – | 181 ± 56 | –
13 | MEIVSTGNETITEFVLLGFYDIPELHFLFFIVFTAVYVFIIIGNMLIIVAVVSSQRLHKPMYIFLANLSFLDILYTSAVMPKMLEGFLQEATISVAGCLLQFFIFGSLATAECLLLAVMAYDRYLAICYPLHYPLLMGPRRYMGLVVTTWLSGFVVDGLVVALVAQLRFCGPNHIDQFYCDFMLFVGLACSDPRVAQVTTLILSVFCLTIPFGLILTSYARIVVAVLRVPAGASRRRAFSTCSSHLAVVTTFYGTLMIFYVAPSAVHSQLLSKVFSLLYTVVTPLFNPVIYTMRNKEVHQALRKILCIKQTETLD [OR11A1] | – | 398 ± 120 | –
14 | MENQSSISEFFLRGISAPPEQQQSLFGIFLCMYLVTLTGNLLIILAIGSDLHLHTPMYFFLANLSFVDMGLTSSTVTKMLVNIQTRHHTISYTGCLTQMYFFLMFGDLDSFFLAAMAYDRYVAICHPLCYSTVMRPQVCALMLALCWVLTNIVALTHTFLMARLSFCVTGEIAHFFCDITPVLKLSCSDTHINEMMVFVLGGTVLIVPFLCIVTSYIHIVPAILRVRTRGGVGKAFSTCSSHLCVVCVFYGTLFSAYLCPPSIASEEKDIAAAAMYTIVTPMLNPFIYSLRNKDMKGALKRLFSHRSIVSS [OR1N1] | – | 119 ± 14 | –
15 | MEPLNRTEVSEFFLKGFSGYPALEHLLFPLCSAMYLVTLLGNTAIMAVSVLDIHLHTPVYFFLGNLSTLDICYTPTFVPLMLVHLLSSRKTISFAVCAIQMCLSLSTGSTECLLLAITAYDRYLAICQPLRYHVLMSHRLCVLLMGAAWVLCLLKSVTEMVISMRLPFCGHHVVSHFTCKILAVLKLACGNTSVSEDFLLAGSILLLPVPLAFICLSYLLILATILRVPSAARCCKAFSTCLAHLAVVLLFYGTIIFMYLKPKSKEAHISDEVFTVLYAMVTTMLNPTIYSLRNKEVKEAARKVWGRSRASR [OR13J1] | – | 140 ± 33 | –
16 | MLMKKNASFEDFFLLLGFSNWPHLEVVLFVVILIFYLITLIGNLFIIILSYLDSHLHTPMYFFLSNLSFLDLCYTTSSIPQLLVNLWGPEKTISYAGCTVQLYFVLALGTAECVLLVVMSYDRYAAVCRPLHYTVLMHPRFCRLLAAASWVSGFTTSALHSSFTFWIPLCRHRLVDHFFCEVPALLRLSCVDTQANELTLMVMSSIFVLIPLILILTSYGAIARAVLSMQSTTGLQKVLRTCGAHLMVVSLFFIPVMCMYLQPPSENSQDQGKFIALFYTVVTPSLNPLIYTFRNKDVRGAVKRLMGWEWGM [OR2J1] | – | 133 ± 36 | –
